Data on one molecule can be found in publication PMC4895024 (2016).

Assay [1] deals with T1, ProAgio (D1-CD2 variant 3) ( (human and rat D1-CD2 are …, UniProt P06729 25-206)). The assay is described as follows: SPR.
Assay [2] deals with T1, ProAgio (D1-CD2 variant 3). The assay is described as follows: ELISA; without polyLys.

B1: recombinant integrin αvβ3 (commercial) (receptor)
chain 1: FNLDVDSPAEYSGPEGSYFGFAVDFFVPSASSRMFLLVGAPKANTTQPGIVEGGQVLKCDWSSTRRCQPIEFDATGNRDYAKDDPLEFKSHQWFGASVRSKQDKILACAPLYHWRTEMKQEREPVGTCFLQDGTKTVEYAPCRSQDIDADGQGFCQGGFSIDFTKADRVLLGGPGSFYWQGQLISDQVAEIVSKYDPNVYSIKYNNQLATRTAQAIFDDSYLGYSVAVGDFNGDGIDDFVSGVPRAARTLGMVYIYDGKNMSSLYNFTGEQMAAYFGFSVAATDINGDDYADVFIGAPLFMDRGSDGKLQEVGQVSVSLQRASGDFQTTKLNGFEVFARFGSAIAPLGDLDQDGFNDIAIAAPYGGEDKKGIVYIFNGRSTGLNAVPSQILEGQWAARSMPPSFGYSMKGATDIDKNGYPDLIVGAFGVDRAILYRARPVITVNAGLEVYPSILNQDNKTCSLPGTALKVSCFNVRFCLKADGKGVLPRKLNFQVELLLDKLKQKGAIRRALFLYSRSPSHSKNMTISRGGLMQCEELIAYLRDESEFRDKLTPITIFMEYRLDYRTAADTTGLQPILNQFTPANISRQAHILLDCGEDNVCKPKLEVSVDSDQKKIYIGDDNPLTLIVKAQNQGEGAYEAELIVSIPLQADFIGVVRNNEALARLSCAFKTENQTRQVVCDLGNPMKAGTQLLAGLRFSVHQQSEMDTSVKFDLQIQSSNLFDKVSPVVSHKVDLAVLAAVEIRGVSSPDHVFLPIPNWEHKENPETEEDVGPVVQHIYELRNNGPSSFSKAMLHLQWPYKYNNNTLLYILHYDIDGPMNCTSDMEINPLRIKISSLQTTEKNDTVAGQGERDHLITKRDLALSEGDIHTLGCGVAQCLKIVCQVGRLDRGKSAILYVKSLLWTETFMNKENQNHSYSLKSSASFNVIEFPYKNLPIEDITNSTLVTTNVTWGIQPAPMPV
chain 2: GPNICTTRGVSSCQQCLAVSPMCAWCSDEALPLGSPRCDLKENLLKDNCAPESIEFPVSEARVLEDRPLSDKGSGDSSQVTQVSPQRIALRLRPDDSKNFSIQVRQVEDYPVDIYYLMDLSYSMKDDLWSIQNLGTKLATQMRKLTSNLRIGFGAFVDKPVSPYMYISPPEALENPCYDMKTTCLPMFGYKHVLTLTDQVTRFNEEVKKQSVSRNRDAPEGGFDAIMQATVCDEKIGWRNDASHLLVFTTDAKTHIALDGRLAGIVQPNDGQCHVGSDNHYSASTTMDYPSLGLMTEKLSQKNINLIFAVTENVVNLYQNYSELIPGTTVGVLSMDSSNVLQLIVDAYGKIRSKVELEVRDLPEELSLSFNATCLNNEVIPGLKSCMGLKIGDTVSFSIEAKVRGCPQEKEKSFTIKPVGFKDSLIVQVTFDCDCACQAQAEPNSHRCNNGNGTFECGVCRCGPGWLGSQCECSEEDYRPSQQDECSPREGQPVCSQRGECLCGQCVCHSSDFGKITGKYCECDDFSCVRYKGEMCSGHGQCSCGDCLCDSDWTGYYCNCTTRTDTCMSSNGLLCSGRGKCECGSCVCIQPGSYGDTCEKCPTCPDACTFKKECVECKKFDRGALHDENTCNRYCRDEIESVKELKDTGKDAVNCTYKNEDDCVVRFQYYEDSSGKSILYVVEEPECPKGPD
With B1, the Kd in assay [1] was found to be 2 nM; in assay [2], 35 nM.
